According to the supplement of paper PMC7125110:
± gives the standard error. For some assays here: Fewer inactive variants are shown than the library holds.

B1: glmS ribozyme (parent)
chain: AUAAAAGCGCCAGAACUACAGAAAUGUAGUUGACGAGGAGGAGGUUUAUCGAAUUUUCGGCGGAUGCCUCCAAA

Legend:
Settings in all cases: with glucosamine-6-phosphate
[1] = variants of: B1; test: kcat; higher = faster cleavage; RNA array
Method in brief: (§1)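 Barcoded glmS ribozyme variants on sequenced MiSeq chips were transcribed in situ by E. coli RNA polymerase and tracked through a hybridised Cy3 probe at 37 °C. Glucosamine-6-phosphate (40 μM to 10 mM) in HEPES/KCl/Mg(OAc)2 buffer was flowed in, and tiles were imaged over ~14 h. Signals were normalised to baseline and to non-cleaving reference variants; per-tile medians were fit to one- or two-exponential decays to give kobs. kcat and KM came from weighted Michaelis–Menten fits across concentrations.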

[2] = variants of: B1; test: KM; higher = weaker cofactor use; RNA array
Method in brief: as §1

[3] = variants of: B1; test: self-cleavage kobs at 40 uM GlcN6P; higher = faster cleavage; RNA array
Method in brief: as §1

[4] = variants of: B1; test: self-cleavage kobs at 160 uM GlcN6P; higher = faster cleavage; RNA array
Method in brief: as §1

[5] = variants of: B1; test: self-cleavage kobs at 640 uM GlcN6P; higher = faster cleavage; RNA array
Method in brief: as §1

[6] = variants of: B1; test: self-cleavage kobs at 2500 uM GlcN6P; higher = faster cleavage; RNA array
Method in brief: as §1

[7] = variants of: B1; test: self-cleavage kobs at 10000 uM GlcN6P; higher = faster cleavage; RNA array
Method in brief: as §1

Row | Variant | kcat [1] [s⁻¹] | KM [2] [µM] | self-cleavage kobs at 40 uM GlcN6P [3] [s⁻¹] | self-cleavage kobs at 160 uM GlcN6P [4] [s⁻¹] | self-cleavage kobs at 640 uM GlcN6P [5] [s⁻¹] | self-cleavage kobs at 2500 uM GlcN6P [6] [s⁻¹] | self-cleavage kobs at 10000 uM GlcN6P [7] [s⁻¹]
1 | U46C A53C | 0.002 ± 0.00044 | 1380 ± 480 | 7.57e-05 ± 1.7e-05 | 0.000151 ± 4e-05 | 0.000706 ± 0.00013 | 0.00155 ± 0.00033 | 0.00162 ± 0.0003
2 | U55A A64G | 0.0275 ± 0.012 | – | 0.000991 ± 0.00014 | 0.00181 ± 0.00043 | 0.0094 ± 0.0023 | 0.0275 ± 0.0092 | 0.0227 ± 0.0054
3 | A6U U45A | 0.000657 ± 1.8e-05 | 2490 ± 130 | – | – | 0.000134 ± 2e-05 | 0.000337 ± 6.4e-05 | 0.000523 ± 7.7e-05
4 | A64U C70U | 0.00015 ± 1.9e-05 | 1510 ± 510 | – | – | 5.13e-05 ± 5.8e-06 | 7.86e-05 ± 8.2e-06 | 0.000139 ± 9.8e-06
5 | A15G G60U | < 1e-05 | – | < 1e-05 | < 1e-05 | < 1e-05 | – | –
6 | A64U G66A C67U | 1.79e-05 ± 6.9e-06 | – | < 1e-05 | – | – | – | –
7 | A12U U30A | 0.0401 ± 0.009 | 1980 ± 540 | 0.000782 ± 0.00011 | – | 0.0124 ± 0.0029 | – | 0.0321 ± 0.007
8 | A14U C68A | 2.98e-05 ± 1e-05 | – | – | – | – | 3.98e-05 ± 1.4e-05 | –
9 | A33U A39U | 5.86e-05 ± 3e-06 | 4820 ± 620 | – | < 1e-05 | – | 2.03e-05 ± 6.2e-06 | 3.95e-05 ± 5.5e-06
10 | A14U C67U | 0.00362 ± 0.00099 | 2860 ± 930 | 6.23e-05 ± 7e-06 | 0.000181 ± 2e-05 | 0.000591 ± 7.1e-05 | 0.00164 ± 0.00034 | 0.0031 ± 0.00053
11 | C34G C70U | < 1e-05 | – | – | – | – | – | < 1e-05
12 | C34U G38A C71U | < 1e-05 | – | < 1e-05 | < 1e-05 | – | < 1e-05 | –
13 | G9A G38U | < 1e-05 | – | – | – | < 1e-05 | – | –
14 | C16A U30A | 0.00139 ± 0.00047 | – | 3.95e-05 ± 8.3e-06 | 0.000164 ± 3e-05 | 0.000316 ± 5.7e-05 | 0.00154 ± 0.00022 | 0.00109 ± 0.00017
15 | G40U A48U | 7.9e-05 ± 9.5e-06 | 3220 ± 1300 | < 1e-05 | – | – | 3.77e-05 ± 1.6e-05 | 5.95e-05 ± 8.8e-06
16 | A15U A52C | < 1e-05 | 537 ± 110 | < 1e-05 | < 1e-05 | < 1e-05 | – | –
17 | U31G G66U | 0.000571 ± 6e-05 | 2410 ± 400 | – | 2.77e-05 ± 1e-05 | 0.000126 ± 1.5e-05 | 0.00029 ± 4.4e-05 | 0.000452 ± 8e-05

Row | Variant | kcat [1] [s⁻¹] | KM [2] [µM] | self-cleavage kobs at 40 uM GlcN6P [3] [s⁻¹] | self-cleavage kobs at 160 uM GlcN6P [4] [s⁻¹] | self-cleavage kobs at 640 uM GlcN6P [5] [s⁻¹] | self-cleavage kobs at 2500 uM GlcN6P [6] [s⁻¹] | self-cleavage kobs at 10000 uM GlcN6P [7] [s⁻¹]
18 | U31C C50G | 6.62e-05 ± 2.8e-05 | – | 2.9e-05 ± 1.3e-05 | 0.000114 ± 1.7e-05 | 0.000104 ± 2e-05 | 8.9e-05 ± 1.3e-05 | –
19 | C11U A12U U56C | 0.00124 ± 0.00036 | – | 5.74e-05 ± 1.7e-05 | – | 0.000258 ± 5e-05 | 0.000639 ± 0.00015 | 0.00106 ± 0.00015
20 | A53U U57A | 0.000262 ± 3e-05 | 2870 ± 600 | – | – | 5.19e-05 ± 8e-06 | 0.000113 ± 1.4e-05 | 0.000215 ± 3e-05
21 | U47C C71G | 0.000277 ± 6.2e-05 | – | – | – | 0.000116 ± 1.9e-05 | 0.000253 ± 3.8e-05 | 0.000197 ± 5.1e-05
22 | U57C C67A | 3.95e-05 ± 1.7e-06 | 157 ± 71 | – | – | 3.33e-05 ± 1.5e-05 | 3.6e-05 ± 1.1e-05 | 3.97e-05 ± 1.2e-05
23 | G41U U56G | 0.000847 ± 0.00013 | 2280 ± 590 | 2.66e-05 ± 1.2e-05 | 4.73e-05 ± 1.1e-05 | 0.000185 ± 3.5e-05 | 0.000491 ± 5.8e-05 | 0.00064 ± 9.6e-05
24 | A42U C67G | 0.000997 ± 0.00019 | 853 ± 310 | 6.76e-05 ± 8.5e-06 | 0.000114 ± 2.5e-05 | 0.000369 ± 4.9e-05 | 0.00082 ± 0.00012 | 0.000939 ± 8.5e-05
25 | G41A A42U | 0.000123 ± 4e-06 | 1440 ± 160 | – | – | 3.91e-05 ± 1.2e-05 | 7.77e-05 ± 1.3e-05 | 0.000108 ± 1.2e-05
26 | U30A A52U C70U | 7.84e-05 ± 3.9e-06 | 89.4 ± 24 | – | 4.9e-05 ± 1.3e-05 | 7.62e-05 ± 1.7e-05 | 7.31e-05 ± 1.4e-05 | 7.39e-05 ± 2.7e-05
27 | A12U U69A | 0.000227 ± 4.2e-05 | – | 0.000106 ± 1.6e-05 | 0.000124 ± 2.9e-05 | 0.000292 ± 4.6e-05 | 0.000186 ± 2.9e-05 | 0.000303 ± 4.8e-05
28 | C50U G66A | 0.000123 ± 5.1e-05 | – | – | – | – | – | 4.11e-05 ± 9.9e-06
29 | A48C G66U | 2.77e-05 ± 2.1e-07 | 2750 ± 61 | – | – | – | – | –
30 | C61A | < 1e-05 | – | – | – | – | – | –
31 | G44U A53U | 0.000149 ± 2.2e-05 | – | – | – | – | 0.00015 ± 6e-05 | 0.000129 ± 1e-05
32 | G51U U54A | < 1e-05 | – | – | – | – | – | –
33 | U56A C68A | 4.71e-05 ± 1.1e-05 | – | – | 5.43e-05 ± 1e-05 | 5.74e-05 ± 1e-05 | 5.61e-05 ± 1e-05 | –
